Laboratory results reported in paper PMC3386925.

Biological target: calcitonin receptor (bovine (endogenous in bovine articular cartilage explants))

share of CTR-positive cells (immunohistochemistry) in the deep layer of T3-induced explants after four days of co-stimulation with 1 nM and 10 nM sCT: < 43%
Substance: salmon calcitonin (peptide)
